According to patent US6969517 (dated 2005):
Read-outs that look alike come from different tables or passages of the source.

How the values were obtained:
EpCAM (KSA) [1] = biological target: T1, EpCAM (KSA) (human, UniProt P16422); assay: ELISA
T1 chain: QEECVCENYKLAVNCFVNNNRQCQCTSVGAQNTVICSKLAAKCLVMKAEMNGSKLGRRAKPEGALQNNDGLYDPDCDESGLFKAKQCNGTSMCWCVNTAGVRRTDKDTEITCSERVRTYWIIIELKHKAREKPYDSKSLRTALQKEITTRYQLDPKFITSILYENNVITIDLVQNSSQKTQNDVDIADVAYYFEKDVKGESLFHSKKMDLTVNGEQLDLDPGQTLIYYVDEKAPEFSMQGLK

EpCAM (KSA) [2] = biological target: T1, EpCAM (KSA); assay: SPR
EpCAM (KSA) [3] = biological target: T1, EpCAM (KSA); assay: SPR
EpCAM (KSA) [4] = biological target: T1, EpCAM (KSA); assay: ELISA

B1: VK6/VH6 (Construct 1) (antibody, V domains shown)
VH: QVQLVQSGAEVKKPGESVKISCKASGYTFTNYGMNWVRQAPGKGLEWMGWINTYTGEPTYAQKFQGRVTISLDTSTSTAYLQLSSLRAEDTAVYFCVRFISKGDYWGQGTSVTVSS
VL: EIVLTQSPATLSLSPGERVTLTCSASSSVSYMLWYQQKPGQAPKLLIFDTSNLASGIPARFSGSGSGTDYTLTISSLEPEDFAVYYCHQRSGYPYTFGGGTKLEIK
Q: Does B1 bind (EpCAM (KSA) [1])?
A: Result: no binding

B2: VK8/VH7-IL2 (antibody, V domains shown)
VH: QIQLVQSGAEVKKPGETVKISCKASGYTFTNYGMNWVKQTPGKGLKWMGWINTYTGEPTYADDFKGRFAFSLETSTSTAFLQINNLRSEDTATYFCVRFISKGDYWGQGTSVTVSS
VL: EIVLTQSPATLSLSPGERVTLTCSASSSVSYMLWYQQKPGSSPKPWIFDTSNLASGFPARFSGSGSGTSYSLIISSMEAEDAATYYCHQRSGYPYTFGGGTKLEIK
Q: With B2 as the binder, how does the Kd (EpCAM (KSA) [2]) read?
A: The Kd was 1 nM.

B3: VK1/VH1-IL2 (antibody, V domains shown)
VH: QIQLVQSGPELKKPGSSVKISCKASGYTFTNYGMNWVRQAPGKGLKWMGWINTYTGEPTYADDFKGRFTITAETSTSTLYLQLNNLRSEDTATYFCVRFMSKGDYWGQGTTVTVSS
VL: QIVLTQSPASLAVSPGQRATITCSASSSVSYILWYQQKPGQPPKPWIFDTSNLASGFPSRFSGSGSGTSYTLTINSLEAEDAATYYCHQRSGYPYTFGGGTKVEIK
Q: Which Kd (EpCAM (KSA) [2]) does the source give for B3 here?
A: The Kd was 7.9 nM.

B4: VK8/VH7 (Construct 3) (antibody, V domains shown)
VH: QIQLVQSGAEVKKPGETVKISCKASGYTFTNYGMNWVKQTPGKGLKWMGWINTYTGEPTYADDFKGRFAFSLETSTSTAFLQINNLRSEDTATYFCVRFISKGDYWGQGTSVTVSS
VL: EIVLTQSPATLSLSPGERVTLTCSASSSVSYMLWYQQKPGSSPKPWIFDTSNLASGFPARFSGSGSGTSYSLIISSMEAEDAATYYCHQRSGYPYTFGGGTKLEIK
Q: For B4, which Kd (EpCAM (KSA) [3]) is on record?
A: The Kd was 1 nM.

B5: VK0/VH0 (hybridoma chKS-1/4) (antibody, V domains shown)
VH: QIQLVQSGPELKKPGETVKISCKASGYTFTNYGMNWVRQAPGKGLKWMGWINTYTGEPTYADDFKGRFVFSLETSASTAFLQLNNLRSEDTATYFCVRFISKGDYWGQGTSVTVSS
VL: QILLTQSPAIMSASPGEKVTMTCSASSSVSYMLWYQQKPGSSPKPWIFDTSNLASGFPARFSGSGSGTSYSLIISSMEAEDAATYYCHQRSGYPYTFGGGTKLEIK
Q: For B5, which Kd (EpCAM (KSA) [3]) is on record?
A: The Kd was 1 nM.

B6: '369 chKS-1/4 (VK0/VH'369) (antibody, V domains shown)
VH: QIQLVQSGPELKKPGETVKISCKASGYTFTNYGMNWVKQTPGKGLKWMGWINTYTGEPTYADDFKGRFAFSLETSASTAFLQIQQPQNMRTMATYFCVRFISKGDYWGQGTSVTVSS
VL: QILLTQSPAIMSASPGEKVTMTCSASSSVSYMLWYQQKPGSSPKPWIFDTSNLASGFPARFSGSGSGTSYSLIISSMEAEDAATYYCHQRSGYPYTFGGGTKLEIK
Q: Does B6 bind (EpCAM (KSA) [4])?
A: Result: no binding

B7: VK1/VH2-IL2 (antibody, V domains shown)
VH: QIQLVQSGPELKKPGSSVKISCKASGYTFTNYGMNWVRQAPGKGLKWMGWINTYTGEPTYADDFKGRFTITAETSTSTLYLQLNNLRSEDTATYFCVRFISKGDYWGQGTTVTVSS
VL: QIVLTQSPASLAVSPGQRATITCSASSSVSYILWYQQKPGQPPKPWIFDTSNLASGFPSRFSGSGSGTSYTLTINSLEAEDAATYYCHQRSGYPYTFGGGTKVEIK
Q: With B7 as the binder, how does the Kd (EpCAM (KSA) [2]) read?
A: The Kd was 3.1 nM.
